As usually defined, the IC50 is the concentration at which inhibition is half-maximal. A low value points to greater potency.

The record followed here is patent US20240100159A1, “USE OF IL-7R-ALPHA-GAMMA AGONIST PEPTIDES IN CELL MANUFACTURING” (MEDIKINE, INC., priority 2022, published 2024).

B1: SEQ ID NO 324 (peptide)
peptide: VGIECEEWAGVELCWL
modifications: not fully specified (bridges); cysteine pairing not given here
notes: also called Rγc ligand
B2: SEQ ID NO 252 (peptide)
peptide: MVNREVVVCEDWYGVELCWQ
modifications: not fully specified (bridges); cysteine pairing not given here
notes: also called Rγc ligand
B3: SEQ ID NO 246 (peptide)
peptide: IECDTSYGVYICWQ
modifications: not fully specified (bridges); cysteine pairing not given here
notes: also called Rγc ligand
B4: SEQ ID NO 323 (peptide)
peptide: ILCEEWQGVELCWLEGGGS
modifications: not fully specified (bridges); cysteine pairing not given here
notes: also called Rγc ligand
B5: SEQ ID NO 250 (peptide)
peptide: LALRKEVVCQEYYGVELCWI
modifications: not fully specified (bridges); cysteine pairing not given here
notes: also called Rγc ligand
B6: SEQ ID NO 321 (peptide)
peptide: GYGVVCEDFRGVELCWLERK
modifications: not fully specified (bridges); cysteine pairing not given here
notes: also called Rγc ligand
B7: SEQ ID NO 320 (peptide)
peptide: RTGVECQDWHGVELCWPVWE
modifications: not fully specified (bridges); cysteine pairing not given here
notes: also called Rγc ligand
B8: SEQ ID NO 254 (peptide)
peptide: VECQEWGGVELCWC
modifications: not checked
B9: SEQ ID NO 314 (peptide)
peptide: AVCQDWYGVELCWCMQDILD
modifications: not checked
B10: SEQ ID NO 262 (peptide)
peptide: DVVCQNWEGVDLCWH
modifications: not checked
B11: SEQ ID NO 316 (peptide)
peptide: HSTVICQDWDGVELCWIEND
modifications: not checked
B12: SEQ ID NO 259 (peptide)
peptide: SAPERWVECEDWQGVELCWV
modifications: not checked
B13: SEQ ID NO 304 (peptide)
peptide: PVEVRCQEWEGVELCWVVGI
modifications: not checked
B14: SEQ ID NO 319 (peptide)
peptide: RWAVSCQDWQGIELCWPEWD
modifications: not checked
B15: SEQ ID NO 305 (peptide)
peptide: GPEVVCEEFNRVELCWVEYN
modifications: not checked
B16: SEQ ID NO 290 (peptide)
peptide: GLEIACEDWYGVELCWLRRA
modifications: not checked
B17: SEQ ID NO 263 (peptide)
peptide: SAGRQEVVCQDWNGVELCWI
modifications: not checked
B18: SEQ ID NO 266 (peptide)
peptide: DVVCQNWDGVDLCWH
modifications: not checked
B19: SEQ ID NO 277 (peptide)
peptide: TWNMSELECQDWNGVEICWH
modifications: not checked
B20: SEQ ID NO 256 (peptide)
peptide: IVCEEWRGVELCWL
modifications: not checked
B21: SEQ ID NO 267 (peptide)
peptide: TLGRTVVECQDWGGVELCWQ
modifications: not checked
B22: SEQ ID NO 286 (peptide)
peptide: KITVECQDWDGVELCWPTWI
modifications: not checked
B23: SEQ ID NO 292 (peptide)
peptide: PYGVVCQDWAGVELCWVENR
modifications: not checked
B24: SEQ ID NO 311 (peptide)
peptide: QLGVECQNWRGVELCWVSEI
modifications: not checked
B25: SEQ ID NO 289 (peptide)
peptide: IMCQEWDGVELCWLERDKAN
modifications: not checked
B26: SEQ ID NO 249 (peptide)
peptide: IWGRTVVECQDWEGVELCWQ
modifications: not checked
B27: SEQ ID NO 278 (peptide)
peptide: GNDDSYIVCEEWKGVELCWI
modifications: not checked
B28: SEQ ID NO 309 (peptide)
peptide: IVCEEYNGVELCWVETSVKP
modifications: not checked
B29: SEQ ID NO 315 (peptide)
peptide: VECEEWGGVELCWLADEVMW
modifications: not checked
B30: SEQ ID NO 264 (peptide)
peptide: GQGREVVVCHDWYGVELCWQ
modifications: not checked
B31: SEQ ID NO 253 (peptide)
peptide: TANQTVVECQVWGGVELCWQ
modifications: not checked
B32: SEQ ID NO 312 (peptide)
peptide: TAEVVCQEWDGVELCWIEVL
modifications: not checked
B33: SEQ ID NO 247 (peptide)
peptide: IECEEWRGVELCWQ
modifications: not checked
B34: SEQ ID NO 308 (peptide)
peptide: VVCQEWEGVELCWQTGPGAHA
modifications: not checked
B35: SEQ ID NO 257 (peptide)
peptide: DFERSYVVCQDWDGVELCWI
modifications: not checked
B36: SEQ ID NO 248 (peptide)
peptide: PEGREVVVCRDWYGVELCWQ
modifications: not checked
B37: SEQ ID NO 296 (peptide)
peptide: RVQVECEDWNGVELCWPVRV
modifications: not checked
B38: SEQ ID NO 265 (peptide)
peptide: DWRRSVVECQDWYGVELCWQ
modifications: not checked
B39: SEQ ID NO 300 (peptide)
peptide: RLGVECQEWEGVDLCWISAF
modifications: not checked
B40: SEQ ID NO 313 (peptide)
peptide: SPSIVCEEWAGVELCWVDYS
modifications: not checked
B41: SEQ ID NO 272 (peptide)
peptide: ERPRSFIECQEWEGVELCWL
modifications: not checked
B42: SEQ ID NO 303 (peptide)
peptide: TDEVSCQEWEGVELCWIERQ
modifications: not checked
B43: SEQ ID NO 297 (peptide)
peptide: DRQVVCEEWDGVELCWIEES
modifications: not checked
B44: SEQ ID NO 306 (peptide)
peptide: KYIVECQEWGGVELCWPEMV
modifications: not checked
B45: SEQ ID NO 251 (peptide)
peptide: HEAREVVVCQDWYGVELCWQ
modifications: not checked
B46: SEQ ID NO 291 (peptide)
peptide: GYGVLCQEWQGVELCWPVQREAGV
modifications: not checked
B47: SEQ ID NO 271 (peptide)
peptide: GDRPKEVVCEDWKGVELCWI
modifications: not checked
B48: SEQ ID NO 294 (peptide)
peptide: INCQTWNGVELCWVDEGLYQ
modifications: not checked
B49: SEQ ID NO 287 (peptide)
peptide: RPQIECQEWQGVELCWTREE
modifications: not checked
B50: SEQ ID NO 274 (peptide)
peptide: ANQNTVVECQDWHGVELCWQ
modifications: not checked
B51: SEQ ID NO 280 (peptide)
peptide: LNRSVWIECEEYEGVELCWL
modifications: not checked
B52: SEQ ID NO 285 (peptide)
peptide: KSQVECQDWEGVELCWVVSE
modifications: not checked
B53: SEQ ID NO 322 (peptide)
peptide: RTEVECEDWEGVELCWL
modifications: not checked
B54: SEQ ID NO 310 (peptide)
peptide: EQQVVCQEWNGVELCWIEAG
modifications: not checked
B55: SEQ ID NO 288 (peptide)
peptide: VSCQEWDGVELCWVDGDLAA
modifications: not checked
B56: SEQ ID NO 269 (peptide)
peptide: IVCEDWRGVELCWI
modifications: not checked
B57: SEQ ID NO 318 (peptide)
peptide: SVEVVCEEWHGVELCWPVFI
modifications: not checked
B58: SEQ ID NO 299 (peptide)
peptide: RPEVVCQEWEGVELCWISPL
modifications: not checked

Ends that are not written are not given here.

For the first assay, the target named is T1, hu-IL-7Rγc subunit (human, UniProt P31785 23-262, limits assumed).
T1 construct: also called human Rγc subunit; common γc receptor
T1 sequence (looked up): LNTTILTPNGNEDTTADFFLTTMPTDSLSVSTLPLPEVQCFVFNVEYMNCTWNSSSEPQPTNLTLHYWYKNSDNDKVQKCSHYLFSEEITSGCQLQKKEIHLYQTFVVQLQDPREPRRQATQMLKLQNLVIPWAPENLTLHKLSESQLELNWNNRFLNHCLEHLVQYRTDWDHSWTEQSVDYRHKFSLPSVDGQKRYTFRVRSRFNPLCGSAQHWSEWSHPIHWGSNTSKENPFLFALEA
B1: the IC50 is less than 100 µM. Same read-out and setting: under B2 stands less than 100 µM; under B3, less than 100 µM; under B4, less than 100 µM. Same read-out and setting: the result for B5 reads less than 100 µM; that for B6, less than 100 µM.

Take B7: the IC50 is less than 100 µM.

The target in the next assay is T2, hu-IL-7Rγc subunit (human), P31785.
T2 chain: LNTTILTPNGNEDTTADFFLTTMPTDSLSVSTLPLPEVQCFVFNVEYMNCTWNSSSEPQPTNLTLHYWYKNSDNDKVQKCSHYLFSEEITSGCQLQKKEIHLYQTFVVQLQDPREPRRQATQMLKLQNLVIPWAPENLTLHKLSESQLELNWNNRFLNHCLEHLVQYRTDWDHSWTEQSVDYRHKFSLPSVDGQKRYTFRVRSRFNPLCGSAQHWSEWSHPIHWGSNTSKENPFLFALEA
In the case of B8, the IC50 is less than 100 µM.

For B9, the 50% inhibitory concentration (IC50) was less than 100 µM. As for B10, the IC50 was less than 100 µM. Turning to B11, the IC50 is less than 100 µM. With B12, the IC50 was less than 100 µM. With B13, the IC50 was less than 100 µM.

B14 showed a half-maximal inhibitory concentration (IC50) of less than 100 µM. B15 returned a 50% inhibitory concentration (IC50) of less than 100 µM. Molecule B16 returned an IC50 of less than 100 µM. On the same count and under the same terms, under B17 stands less than 100 µM; under B18, less than 100 µM. Same read-out and setting: under B19 stands less than 100 µM; under B20, less than 100 µM; under B21, less than 100 µM.

B22 had an IC50 of less than 100 µM. Turning to B23, the IC50 was less than 100 µM.

Molecule B24 gave a 50% inhibitory concentration (IC50) of less than 100 µM. Regarding B25, the half-inhibitory concentration (IC50) is less than 100 µM. Still for that read-out and setting: the result for B26 reads less than 100 µM; that for B27, less than 100 µM. B28 returned an IC50 of less than 100 µM. The same measure, in the same setting: the result for B29 reads less than 100 µM; that for B30, less than 100 µM; that for B31, less than 100 µM. Still for that read-out and setting: the result for B32 reads less than 100 µM; that for B33, less than 100 µM.

B34 registered an IC50 of less than 100 µM. As to B35, the IC50 is less than 100 µM. The same measure, in the same setting: under B36 stands less than 100 µM; under B37, less than 100 µM; under B38, less than 100 µM. For the molecule B39, the concentration for half-maximal inhibition (IC50) is less than 100 µM.

Consider B40, for which the IC50 is less than 100 µM. For B41, the 50% inhibitory concentration (IC50) is less than 100 µM. Still for that read-out and setting: under B42 stands less than 100 µM.

With B43, the 50% inhibitory concentration (IC50) was less than 100 µM.

On to B44, for which the IC50 was less than 100 µM. In turn, B45 gave a concentration for half-maximal inhibition (IC50) of less than 100 µM.

For B46, the concentration for half-maximal inhibition (IC50) was less than 100 µM.

For B47, the IC50 was less than 100 µM. Same read-out and setting: the result for B48 reads less than 100 µM.

Turning to B49, the IC50 was less than 100 µM. B50 had an IC50 of less than 100 µM.

With B51, the IC50 is less than 100 µM. The same measure, in the same setting: the result for B52 reads less than 100 µM; that for B53, less than 100 µM. B54 displayed an IC50 of less than 100 µM. B55: the IC50 is less than 100 µM. B56: the 50% inhibitory concentration (IC50) is less than 100 µM. The same measure, in the same setting: the result for B57 reads less than 100 µM; that for B58, less than 100 µM.
